The values that follow come from patent publication US20160311863A1 (Affibody, published 2016).

For assay [1], the target named is T1, human serum albumin (human, UniProt P02768 25-609).
T1 construct: Immobilized on the sensor chip (2500 RU in screening; 1100-1600 RU in kinetics); also called HSA
As to the kind of experiment: SPR (ProteOn) screening, 50 nM over immobilized HSA. The protocol: (§1) Biosensor binding analyses were performed on a ProteOn XPR36 instrument (Bio-Rad) at 25° C. using PBST (150 mM NaCl, 8 mM Na₂HPO₄, 2 mM NaH₂PO₄, 0.005% Tween20, pH 7.4) as running buffer at a flow rate of 50 μl min⁻¹. An injection of 30 μl of 20 mM HCl at a flow rate of 100 μl min⁻¹ was used for chip regeneration. In a screening experiment, the binding of all polypeptide variants to human serum albumin (HSA) was investigated. The proteins were diluted to 50 nM in running buffer and injected over a chip surface with 2500 RU of immobilized HSA. The association was studied for 300 s and the dissociation was followed for 7200 s (2 h). For data analysis, all samples were double referenced; the signal from a blank surface was first subtracted from the signal from the respective protein, and secondly the signal from an injection of PBST (running buffer) over the HSA surface was subtracted.

For assay [2], the target named is T1, human serum albumin. As to the kind of experiment: SPR (ProteOn XPR36), HSA immobilized, 1:1 Langmuir fit, triplicate. The protocol: as §1
The HSA binding kinetics of PEP18049_CL and the reference protein PEP07830 were further studied using a sensor chip with HSA immobilized on three different surfaces to between 1100 RU and 1600 RU. The proteins were diluted in running buffer (0.8, 1.6, 3.3, and 6.6 nM for PEP18049_CL and 1.0, 2.0, 4.0 and 8.0 nM for PEP07830) and injected over the three HSA surfaces and thus giving binding curves in triplicate. The association time was 300 s and the dissociation was followed for 36 000 s (10 h).
(§2) The kinetic parameters of the binding of PEP18049_CL and the reference protein PEP07830 to HSA were obtained from fitting the obtained sensorgrams to a 1:1 Langmuir binding model using the ProteOn Manager software version 3.1.0.6 (Bio-Rad). The average association rate constant (kₐ (M⁻¹ s⁻¹) and dissociation rate constant (kd (s⁻¹)) with standard deviation were calculated. From the average kₐ and the kd the dissociation equilibrium constant (KD (M)) was calculated (KD=kd/kₐ).

Assay [3] deals with T1, human serum albumin. As to the kind of experiment: SPR (ProteOn XPR36), HSA immobilized, KD=kd/ka. Here is the method:
as §1, with “subtracted. […]” for “subtracted.”
as §2

The target in assay [4] is T1, human serum albumin. As to the kind of experiment: SPR (ProteOn XPR36), polypeptide injected over immobilized HSA. Here is the method: as §1

Starred links: 1 amine or outer side, 2 acyl side, 3 side chain; linkers in the order of their positions; H or OH if unused. Positions of bridges follow the written chain, without caps; N, C: chain ends. No end group written: not given here. mXylylene = c1cc(C[*:1])cc(C[*:2])c1; oXylylene = c1ccc(C[*:2])c(C[*:1])c1

B1: PEP14789_CL_A (designed binder)
chain: GSSLAEAKEAANAELDSYGCSDFYKRLIDKAKTVEGVEALKDAILAACP
modifications: linker 20-48 via oXylylene
notes: Recombinantly produced in E. coli; same as PEP14788 but with an N-terminal GSS (expressed with an MGSS extension); The crosslink positions are printed as Cys17-Cys45, probably counted without the GSS; also called PEP14789 crosslinked with linker A (o-xylylene dibromide)
Turning to B1, the binding result in assay [1] is “binds”.

B2: PEP14789_CL_B (designed binder)
chain: GSSLAEAKEAANAELDSYGCSDFYKRLIDKAKTVEGVEALKDAILAACP
modifications: linker 20-48 via mXylylene
notes: Recombinantly produced in E. coli; same as PEP14788 but with an N-terminal GSS (expressed with an MGSS extension); The crosslink positions are printed as Cys17-Cys45, probably counted without the GSS; also called PEP14789 crosslinked with linker B (m-xylylene dibromide)
Consider B2, for which the binding result in assay [1] is on record as “binds”.

B3: PEP18049_CL (designed binder)
chain: LAEAKEAANAELDSYGCSDFYKRLIDKAKTVEGVEALKDAILAAKP
modifications: not fully specified; N-terminal leucine capped with acetic anhydride (acetylated); chloroacetylated Lys45 joined to the thiol of Cys17 by a thioether bond (intramolecular crosslink Cys17-Lys45); synthesised on Rink Amide resin
notes: also called crosslinked PEP18049
Usually koff stands for the rate constant with which the complex falls apart. Usually kon stands for the rate constant with which the complex forms. Usually Kd stands for the concentration at which binding is half-saturated. The low end stands for a tighter complex, the high end for a looser complex. In assay [2], B3 had a koff of 1.5e-05 s⁻¹ and a kon of 620000 M⁻¹ s⁻¹. Also, in assay [3], the affinity, expressed as Kd, was 0.024 nM.

B4: PEP14788_CL_E (designed binder)
chain: LAEAKEAANAELDSYGCSDFYKRLIDKAKTVEGVEALKDAILAACP-NH2
modifications: linker 17-45 via 2,6‑bis(bromomethyl)pyridine
notes: Chemically synthesised Cys-Cys crosslinked variant; also called PEP14788 crosslinked with linker E (2,6-bis(bromomethyl)pyridine)
For the molecule B4, in assay [1], the binding result is on record as “binds”.

B5: PEP18050_CL (designed binder)
chain: LAEAKEAANAELDSYGVSDFYKRLIDKCKTVEGVEALKDAILAALP
modifications: not fully specified; chloroacetylated Lys5 joined to the thiol of Cys28 by a thioether bond (intramolecular crosslink Lys5-Cys28); synthesised on Rink Amide resin
notes: Control crosslinked variant; also called crosslinked PEP18050
As to B5, the binding result in assay [4] is “no binding (tested: 50 nM)”.

B6: PEP18051_CL (designed binder)
chain: CAEAKEAANAELDSYGVSDFYKRLIDKAKTVEGVEALKDAILAALP
modifications: not fully specified; chloroacetylated Lys29 joined to the thiol of Cys1 by a thioether bond (intramolecular crosslink Cys1-Lys29); synthesised on Rink Amide resin
notes: Control crosslinked variant; also called crosslinked PEP18051
For the molecule B6, the binding result in assay [1] is “binds”.

B7: PEP14788_CL_A (designed binder)
chain: LAEAKEAANAELDSYGCSDFYKRLIDKAKTVEGVEALKDAILAACP-NH2
modifications: linker 17-45 via oXylylene
notes: Chemically synthesised Cys-Cys crosslinked variant; also called PEP14788 crosslinked with linker A (o-xylylene dibromide)
As for B7, in assay [1], the binding result is “binds”.

B8: PEP07830 (designed binder)
chain: LAEAKEAANAELDSYGVSDFYKRLIDKAKTVEGVEALKDAILAALP-NH2
notes: Linear (non-crosslinked) control, made by solid phase peptide synthesis
In assay [2], B8 yielded a koff of 4.1e-06 s⁻¹ and a kon of 190000 M⁻¹ s⁻¹. Besides, in assay [3], the Kd came out at 0.021 nM.

B9: PEP14788_CL_B (designed binder)
chain: LAEAKEAANAELDSYGCSDFYKRLIDKAKTVEGVEALKDAILAACP-NH2
modifications: linker 17-45 via mXylylene
notes: Chemically synthesised Cys-Cys crosslinked variant; also called PEP14788 crosslinked with linker B (m-xylylene dibromide)
Turning to B9, in assay [1], the binding result is given as “binds”.

B10: PEP18052_CL (designed binder)
chain: LAEAKEAANAELDSYGCSDFYKRLIDKCKTVEGVEALKDAILAAKP
modifications: not fully specified; two thioether crosslinks between chloroacetylated lysines and cysteines: Lys5-Cys28 and Cys17-Lys45; synthesised on Rink Amide resin
notes: Control, double crosslinked variant; the expected mass was found in two HPLC peaks that behaved alike; also called crosslinked PEP18052
As for B10, the binding result in assay [4] was “no binding (tested: 50 nM)”.
